Values quoted from earlier work as cited in publication PMC8900292.

Biological target: VAMP2 juxtamembrane LD (UniProt P63027)
Chain of UniProt P63027 (P63027 whole entry, looked up): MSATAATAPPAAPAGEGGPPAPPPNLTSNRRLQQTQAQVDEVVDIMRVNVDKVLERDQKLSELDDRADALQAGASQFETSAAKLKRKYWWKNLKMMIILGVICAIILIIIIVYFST

Munc13-1 MUN (from UniProt Q62768)
Kd: 10 µM
